These results are taken from patent publication US5627154A, “Calcium channel blocking polypeptides from Heteropoda venatoria” (Pfizer Inc., priority 1995, dated 1997).

Where no end group is shown, it is not given here.

Sequences and labels used below:
B1: Heteropoda peptide KJ 7 (peptide)
peptide: ECGTLFSGCSTHADCCEGFICKLWCRYERTW-NH2
modifications: disulfide (positions not given here)
B2: Heteropoda peptide AU 5B (peptide)
peptide: ADCGWLFHSCESNADCCENWACATTGRFRYLCKYQI-NH2
modifications: not fully specified (bridges); also: 3 disulfide bonds, pairing not given here
B3: Heteropoda peptide AU 2 (peptide)
peptide: DDCGGLFSGCDSNADCCEGYVCRLWCKYKL-NH2
modifications: not fully specified (bridges); also: 3 disulfide bonds, pairing not given here
B4: Heteropoda peptide KJ 5 (peptide)
peptide: DCGTIWHYCGTDQSECCEGWKCSRQLCKYVIDW-NH2
modifications: not fully specified (bridges); also: 3 disulfide bonds, pairing not given here
B5: Heteropoda peptide AU 5A (peptide)
peptide: DDDCGWIMDDCTSDSDCCPNWVCSKTGFVKNICKYEM-NH2
modifications: not fully specified (bridges); also: 3 disulfide bonds, pairing not given here
B6: Heteropoda peptide AU 3 (peptide)
peptide: DCGTIWHYCGTDQSECCEGWKCSRQLCKYVIDW-NH2
modifications: not fully specified (bridges); also: 3 disulfide bonds, pairing not given here
B7: Heteropoda peptide KJ 6 (peptide)
peptide: DDCGKLFSGCDTNADCCEGYVCRLWCKLDW-NH2
modifications: disulfide (positions not given here)
B8: Heteropoda peptide AU 5C (peptide)
peptide: ECGTLFSGCSTHADCCEGFICKLWCRYERTW-NH2
modifications: not fully specified (bridges); also: 3 disulfide bonds, pairing not given here
B9: Heteropoda peptide KJ 1 (peptide)
peptide: DDCGTLFSGCDTSKDCCEGYVCHLWCKYK-NH2
modifications: not fully specified (bridges); also: 3 disulfide bonds, pairing not given here

One test deals with calcium channels.
Settings: not given
In the case of B1, the IC50 for blocking calcium channels (decrease in fura2 fluorescence) was under 3000 nM. For the molecule B2, the IC50 for blocking calcium channels (decrease in fura2 fluorescence) is under 3000 nM. Turning to B3, the IC50 for blocking calcium channels (decrease in fura2 fluorescence) is under 3000 nM. B4: the IC50 for blocking calcium channels (decrease in fura2 fluorescence) is under 3000 nM. For the molecule B5, the IC50 for blocking calcium channels (decrease in fura2 fluorescence) is under 3000 nM.

Consider B6, for which the IC50 for blocking calcium channels (decrease in fura2 fluorescence) was under 3000 nM. Turning to B7, the IC50 for blocking calcium channels (decrease in fura2 fluorescence) was under 3000 nM. In the case of B8, the IC50 for blocking calcium channels (decrease in fura2 fluorescence) is under 3000 nM. Take B9: the IC50 for blocking calcium channels (decrease in fura2 fluorescence) was under 3000 nM.

For another test, the system named is calcium channels. As to conditions: read-out: IC50 values for blocking calcium channels; cerebellar granule cells from 8 day old rats, fura2 fluorescence, 37° C.
As for `COc1ccc(CCN(C)CCCC(C#N)(c2ccc(OC)c(OC)c2)C(C)C)cc1OC` (stereo not shown) [Verapamil], the 50% inhibitory concentration (IC50) (usually the concentration at which inhibition is half-maximal) was found to be 4.8 µM.
